Laboratory results reported in patent US20020151484A1 (HYBRIGENICS, published 2002).

What was measured:
Assay in all cases: yeast two-hybrid, mating, His3/LacZ reporters
[1] = molecular target: T1, Bait polypeptide of SEQ ID No 87, NS3 (100%), HCV strain H77 nt 4238-4857 (hepatitis C virus strain H77, UniProt P27958 1300-1504)
T1 construct: also called Bait NS3 (100%)
T1 chain: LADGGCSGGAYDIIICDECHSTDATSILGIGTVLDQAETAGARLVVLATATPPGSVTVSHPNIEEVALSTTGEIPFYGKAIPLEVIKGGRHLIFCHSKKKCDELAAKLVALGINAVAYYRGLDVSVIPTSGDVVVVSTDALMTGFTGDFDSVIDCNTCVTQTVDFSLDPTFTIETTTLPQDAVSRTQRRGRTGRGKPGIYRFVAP

[2] = molecular target: T2, Bait polypeptide of SEQ ID No 97, NS4B (100%), HCV strain H77 nt 6011-6177 (hepatitis C virus strain H77, UniProt O92972 1891-1944)
T2 construct: also called Bait NS4B (100%)
T2 sequence: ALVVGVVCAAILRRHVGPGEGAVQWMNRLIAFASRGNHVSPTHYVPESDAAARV

[3] = molecular target: T3, Bait polypeptide of SEQ ID No 95, NS4B (55%)/NS5A (44%), HCV strain H77 nt 5882-6562 (hepatitis C virus strain H77, UniProt P26664 1848-2072)
T3 construct: also called Bait NS4B (55%)/NS5A (44%)
T3 chain: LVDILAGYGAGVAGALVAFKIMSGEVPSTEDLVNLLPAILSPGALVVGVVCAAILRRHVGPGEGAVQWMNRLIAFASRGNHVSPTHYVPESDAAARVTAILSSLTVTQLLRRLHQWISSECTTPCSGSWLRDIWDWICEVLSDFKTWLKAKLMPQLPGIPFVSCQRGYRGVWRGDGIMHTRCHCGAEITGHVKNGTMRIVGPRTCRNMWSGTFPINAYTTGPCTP

[4] = molecular target: T4, Bait polypeptide of SEQ ID No 96, NS4B (82%)/NS5A(17%), HCV strain H77 nt 5897-6335 (hepatitis C virus strain H77, UniProt P26664 1853-1997)
T4 construct: also called Bait NS4B (82%)/NS5A(17%)
T4 sequence: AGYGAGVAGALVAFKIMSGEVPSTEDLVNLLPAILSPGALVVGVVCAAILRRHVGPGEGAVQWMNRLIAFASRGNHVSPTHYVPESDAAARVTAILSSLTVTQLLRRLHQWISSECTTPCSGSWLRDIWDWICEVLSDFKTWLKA

[5] = molecular target: T5, SID polypeptide of SEQ ID No 16, NS4B (100%), HCV strain H77 nt 5918-6154 (hepatitis C virus strain H77, UniProt P26664 1860-1936)
T5 construct: Intersection of yeast two-hybrid prey fragments; also called SID NS4B (100%)
T5 sequence: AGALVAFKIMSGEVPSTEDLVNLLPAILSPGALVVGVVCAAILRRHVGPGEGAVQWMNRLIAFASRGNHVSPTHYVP

[6] = molecular target: T6, Bait polypeptide of SEQ ID No 100, NS4B (8%)/NS5A (91%), HCV strain H77 nt 6182-7034 (hepatitis C virus strain H77, UniProt P27958 1948-2230)
T6 construct: also called Bait NS4B (8%)/NS5A (91%)
T6 chain: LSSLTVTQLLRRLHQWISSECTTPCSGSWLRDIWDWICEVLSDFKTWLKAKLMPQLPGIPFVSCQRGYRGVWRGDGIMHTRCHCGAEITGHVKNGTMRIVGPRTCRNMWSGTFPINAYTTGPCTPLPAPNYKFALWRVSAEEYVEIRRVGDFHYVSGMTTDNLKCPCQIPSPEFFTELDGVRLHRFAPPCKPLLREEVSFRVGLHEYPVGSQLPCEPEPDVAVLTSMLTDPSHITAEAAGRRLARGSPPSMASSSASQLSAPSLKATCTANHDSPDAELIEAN

[7] = molecular target: T7, Bait polypeptide of SEQ ID No 89, NS3 (100%), HCV strain H77 nt 4691-5168 (hepatitis C virus strain H77, UniProt P26664 1451-1608)
T7 construct: also called Bait NS3 (100%)
T7 chain: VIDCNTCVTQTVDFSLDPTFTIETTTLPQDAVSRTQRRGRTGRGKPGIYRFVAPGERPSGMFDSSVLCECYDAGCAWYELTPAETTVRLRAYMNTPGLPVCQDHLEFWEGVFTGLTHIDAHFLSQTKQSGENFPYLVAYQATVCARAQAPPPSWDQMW

[8] = molecular target: T8, Bait polypeptide of SEQ ID No 101, NS4B (9%)/NS5A (90%), HCV strain H77 nt 6188-6939 (hepatitis C virus strain H77, UniProt P27958 1950-2198)
T8 construct: also called Bait NS4B (9%)/NS5A (90%)
T8 chain: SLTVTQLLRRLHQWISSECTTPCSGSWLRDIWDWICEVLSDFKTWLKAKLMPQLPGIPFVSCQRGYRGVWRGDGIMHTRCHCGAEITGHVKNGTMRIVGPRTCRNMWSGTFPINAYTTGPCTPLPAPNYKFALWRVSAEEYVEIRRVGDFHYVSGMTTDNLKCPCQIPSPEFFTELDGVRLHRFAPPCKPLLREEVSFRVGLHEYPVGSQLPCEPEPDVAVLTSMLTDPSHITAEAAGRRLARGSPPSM

[9] = molecular target: T9, Bait polypeptide of SEQ ID No 90, NS3 (100%), HCV strain H77 nt 4838-5230 (hepatitis C virus strain H77, UniProt P26664 1500-1628)
T9 construct: also called Bait NS3 (100%)
T9 chain: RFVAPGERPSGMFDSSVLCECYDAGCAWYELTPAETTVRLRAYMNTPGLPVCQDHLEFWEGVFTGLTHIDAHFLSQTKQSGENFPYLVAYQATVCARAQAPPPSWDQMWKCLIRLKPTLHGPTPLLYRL

[10] = molecular target: T10, SID polypeptide of SEQ ID No 23, NS4B (100%), HCV strain H77 nt 5879-6072 (hepatitis C virus strain H77, UniProt Q913V3 1847-1909)
T10 construct: Intersection of yeast two-hybrid prey fragments; also called SID NS4B (100%)
T10 sequence: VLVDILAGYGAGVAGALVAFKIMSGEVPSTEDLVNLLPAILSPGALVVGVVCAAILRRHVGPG

[11] = molecular target: T11, Bait polypeptide of SEQ ID No 93, NS4B (86%)/NS5A (13%), HCV strain H77 nt 5717-6344 (hepatitis C virus strain H77, UniProt P26664 1793-2000)
T11 construct: also called Bait NS4B (86%)/NS5A (13%)
T11 chain: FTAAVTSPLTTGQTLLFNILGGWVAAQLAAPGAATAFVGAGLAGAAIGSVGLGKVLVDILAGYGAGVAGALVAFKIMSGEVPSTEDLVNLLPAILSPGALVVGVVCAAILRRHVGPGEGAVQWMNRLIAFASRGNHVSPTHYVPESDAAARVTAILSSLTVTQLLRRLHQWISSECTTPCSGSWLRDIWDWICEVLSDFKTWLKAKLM

[12] = molecular target: T12, Bait polypeptide of SEQ ID No 77, Core (87%), HCV strain H77 nt 302-614 (hepatitis C virus strain H77)
T12 construct: also called Bait Core (87%)
T12 chain: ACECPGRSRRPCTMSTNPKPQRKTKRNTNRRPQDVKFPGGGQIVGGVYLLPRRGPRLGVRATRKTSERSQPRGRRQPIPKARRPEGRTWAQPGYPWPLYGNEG

[13] = molecular target: T13, Bait polypeptide of SEQ ID No 78, Core (100%), HCV strain H77 nt 342-683 (hepatitis C virus strain H77, UniProt P27958 1-113)
T13 construct: also called Bait Core (100%)
T13 sequence: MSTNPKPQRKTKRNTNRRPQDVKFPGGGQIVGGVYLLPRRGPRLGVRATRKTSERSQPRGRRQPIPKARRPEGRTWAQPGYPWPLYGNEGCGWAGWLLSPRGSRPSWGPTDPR

[14] = molecular target: T14, SID polypeptide of SEQ ID No 28, NS5A (100%), HCV strain H77 nt 6557-6721 (hepatitis C virus strain H77, UniProt P27958 2073-2125)
T14 construct: Intersection of yeast two-hybrid prey fragments; also called SID NS5A (100%)
T14 sequence: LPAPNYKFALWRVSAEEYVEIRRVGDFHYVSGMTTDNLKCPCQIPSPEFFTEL

[15] = molecular target: T15, Bait polypeptide of SEQ ID No 102, NS5A (100%), HCV strain H77 nt 6317-6576 (hepatitis C virus strain H77, UniProt P26664 1993-2077)
T15 construct: also called Bait NS5A (100%)
T15 chain: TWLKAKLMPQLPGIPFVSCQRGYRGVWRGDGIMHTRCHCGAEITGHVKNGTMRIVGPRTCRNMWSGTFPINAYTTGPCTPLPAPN

B1: SID polypeptide of SEQ ID No 12, NS5B (100%), HCV strain H77 nt 7979-8109 (other)
chain: not shown
notes: Intersection of yeast two-hybrid prey fragments; also called SID NS5B (100%)
[1]
  binding result: binds

B2: SID polypeptide of SEQ ID No 22, E2 (100%), HCV strain H77 nt 1823-1955 (other)
chain: GIVPAKSVCGPVYCFTPSPVVVGTTDRSGAPTYSWGANDTDVF
notes: Intersection of yeast two-hybrid prey fragments; also called SID E2 (100%)
[2]
  binding result: binds

B3: SID polypeptide of SEQ ID No 20, NS5B (100%), HCV strain H77 nt 9083-9222 (other)
chain: not shown
notes: as for B1
[3]
  binding result: binds

B4: SID polypeptide of SEQ ID No 21, NS4B (100%), HCV strain H77 nt 5819-6080 (other)
chain: TAFVGAGLAGAAIGSVGLGKVLVDILAGYGAGVAGALVAFKIMSGEVPSTEDLVNLLPAILSPGALVVGVVCAAILRRHVGPGEGA
notes: Intersection of yeast two-hybrid prey fragments; also called SID NS4B (100%)
[4]
  binding result: binds

B5: Bait polypeptide of SEQ ID No 91, NS3 (1%)/NS4A (98%), HCV strain H77 nt 5310-5467 (other)
chain: TSTWVLVGGVLAALAAYCLSTGCVVIVGRIVLSGKPAIIPDREVLYQEFDE
notes: also called Bait NS3 (1%)/NS4 A (98%)
[5]
  binding result: binds

B6: SID polypeptide of SEQ ID No 25, E1 (100%), HCV strain H77 nt 1226-1458 (other)
chain: RRHWTTQDCNCSIYPGHITGHRMAWDMMMNWSPTAALVVAQLLRIPQAIMDMIAGAHWGVLAGIAYFSMVGNWAKV
notes: Intersection of yeast two-hybrid prey fragments; also called SID E1 (100%)
[6]
  binding result: binds

B7: SID polypeptide of SEQ ID No 14, E2 (100%), HCV strain H77 nt 1784-1888 (other)
chain: ERPYCWHYPPRPCGIVPAKSVCGPVYCFTPSPV
notes: as for B2
[7]
  binding result: binds

B8: SID polypeptide of SEQ ID No 26, NS4B (70%)/NS5A (28%), HCV strain H77 nt 6176-6291 (other)
chain: AILSSLTVTQLLRRLHQWISSECTTPCSGSWLRDIWD
notes: Intersection of yeast two-hybrid prey fragments; also called SID NS4B (70%)/NS5A (28%)
[8]
  binding result: binds

B9: SID polypeptide of SEQ ID No 15, E2 (100%), HCV strain H77 nt 1871-1968 (other)
chain: PSPVVVGTTDRSGAPTYSWGANDTDVFVLNN
notes: as for B2
[9]
  binding result: binds

B10: Bait polypeptide of SEQ ID No 98, NS4B (30%)/NS5A (69%), HCV strain H77 nt 6107-6605 (other)
chain: ASRGNHVSPTHYVPESDAAARVTAILSSLTVTQLLRRLHQWISSECTTPCSGSWLRDIWDWICEVLSDFKTWLKAKLMPQLPGIPFVSCQRGYRGVWRGDGIMHTRCHCGAEITGHVKNGTMRIVGPRTCRNMWSGTFPINAYTTGPCTPLPAPNYKFALWRVSA
notes: also called Bait NS4B (30%)/NS5A (69%)
[10]
  binding result: binds

B11: SID polypeptide of SEQ ID No 18, NS4B (53%)/NS5A (46%), HCV strain H77 nt 6197-6310 (other)
chain: VTQLLRRLHQWISSECTTPCSGSWLRDIWDWICEVL
notes: Intersection of yeast two-hybrid prey fragments; also called SID NS4B (53%)/NS5A (46%)
[11]
  binding result: binds

B12: SID polypeptide of SEQ ID No 1, Core (100%), HCV strain H77 nt 446-600 (other)
chain: LLPRRGPRLGVRATRKTSERSQPRGRRQPIPKARRPEGRTWAQPGYPWPL
notes: Intersection of yeast two-hybrid prey fragments; also called SID Core (100%)
[12]
  binding result: binds

B13: SID polypeptide of SEQ ID No 2, NS3 (100%), HCV strain H77 nt 4814-4922 (other)
chain: GRGKPGIYRFVAPGERPSGMFDSSVLCECYDAGCA
notes: Intersection of yeast two-hybrid prey fragments; also called SID NS3 (100%)
[13]
  binding result: binds

B14: SID polypeptide of SEQ ID No 3, Core (100%), HCV strain H77 nt 380-616 (other)
chain: NTNRRPQDVKFPGGGQIVGGVYLLPRRGPRLGVRATRKTSERSQPRGRRQPIPKARRPEGRTWAQPGYPWPLYGNEG
notes: as for B12
[13]
  binding result: binds

B15: Bait polypeptide of SEQ ID No 103, NS5A (100%), HCV strain H77 nt 6440-6727 (other)
chain: EITGHVKNGTMRIVGPRTCRNMWSGTFPINAYTTGPCTPLPAPNYKFALWRVSAEEYVEIRRVGDFHYVSGMTTDNLKCPCQIPSPEFFTELDG
notes: also called Bait NS5A (100%)
[14]
  binding result: binds

B16: SID polypeptide of SEQ ID No 27, NS3 (100%), HCV strain H77 nt 4784-4928 (other)
chain: VSRTQRRGRTGRGKPGIYRFVAPGERPSGMFDSSVLCECYDAGCAWY
notes: as for B13
[15]
  binding result: binds
